Measured values: article PMC2134296

These substances were tested against adenomatous polyposis coli (APC) protein (endogenous, MDCK cells) (dog (endogenous in MDCK)) (assay: co-IP).

Fold coimmunoprecipitated with APC protein relative to endogenous β-catenin, 3 fold:
ΔN90 β-catenin (KT3-tagged, NH2-terminal 90 amino acids deleted) (from UniProt Q02248 91-781) (domain or fragment)
ΔN151 β-catenin (KT3-tagged, NH2-terminal 151 amino acids deleted) (from UniProt Q02248 152-781) (domain or fragment)
ΔN131 β-catenin (KT3-tagged, NH2-terminal 131 amino acids deleted) (from UniProt Q02248 132-781) (domain or fragment)
